Laboratory results reported in PMC3112237 (Journal of virology, 2011).

B1: recombinant Ad3 fiber knob S5/Kn (five shaft motifs and the knob domain) (domain or fragment)
chain: GSLQLKVGSGLTVDTTDGSLEENIKVNTPLTKSNHSINLPIGNGLQIEQNKLCSKLGNGLTFDSSNSIALKNNTLWTGPKPEANCIIEYGKQNPDSKLTLILVKNGGIVNGYVTLMGASDYVNTLFKNKNVSINVELYFDATGHILPDSSSLKTDLELKYKQTADFSARGFMPSTTAYPFVLPNAGTHNENYIFGQCYYKASDGALFPLEVTVMLNKRLPDSRTSYVMTFLWSLNAGLAPETTQATLITSPFTFSYIREDD
B2: recombinant Ad3 fiber knob S3/Kn (three shaft motifs and the knob domain) (domain or fragment)
chain: HSINLPIGNGLQIEQNKLCSKLGNGLTFDSSNSIALKNNTLWTGPKPEANCIIEYGKQNPDSKLTLILVKNGGIVNGYVTLMGASDYVNTLFKNKNVSINVELYFDATGHILPDSSSLKTDLELKYKQTADFSARGFMPSTTAYPFVLPNAGTHNENYIFGQCYYKASDGALFPLEVTVMLNKRLPDSRTSYVMTFLWSLNAGLAPETTQATLITSPFTFSYIREDD
B3: recombinant Ad3 fiber knob S6/Kn (six shaft motifs and the knob domain) (domain or fragment)
chain: GVLSLKCVNPLTTASGSLQLKVGSGLTVDTTDGSLEENIKVNTPLTKSNHSINLPIGNGLQIEQNKLCSKLGNGLTFDSSNSIALKNNTLWTGPKPEANCIIEYGKQNPDSKLTLILVKNGGIVNGYVTLMGASDYVNTLFKNKNVSINVELYFDATGHILPDSSSLKTDLELKYKQTADFSARGFMPSTTAYPFVLPNAGTHNENYIFGQCYYKASDGALFPLEVTVMLNKRLPDSRTSYVMTFLWSLNAGLAPETTQATLITSPFTFSYIREDD
B4: recombinant Ad3 fiber knob S2/Kn (two shaft motifs and the knob domain) (domain or fragment)
chain: NKLCSKLGNGLTFDSSNSIALKNNTLWTGPKPEANCIIEYGKQNPDSKLTLILVKNGGIVNGYVTLMGASDYVNTLFKNKNVSINVELYFDATGHILPDSSSLKTDLELKYKQTADFSARGFMPSTTAYPFVLPNAGTHNENYIFGQCYYKASDGALFPLEVTVMLNKRLPDSRTSYVMTFLWSLNAGLAPETTQATLITSPFTFSYIREDD
B5: recombinant Ad3 fiber knob S/Kn (one shaft motif and the knob domain) (domain or fragment)
chain: NSIALKNNTLWTGPKPEANCIIEYGKQNPDSKLTLILVKNGGIVNGYVTLMGASDYVNTLFKNKNVSINVELYFDATGHILPDSSSLKTDLELKYKQTADFSARGFMPSTTAYPFVLPNAGTHNENYIFGQCYYKASDGALFPLEVTVMLNKRLPDSRTSYVMTFLWSLNAGLAPETTQATLITSPFTFSYIREDD
B6: recombinant Ad3 fiber knob S4/Kn (four shaft motifs and the knob domain) (domain or fragment)
chain: LEENIKVNTPLTKSNHSINLPIGNGLQIEQNKLCSKLGNGLTFDSSNSIALKNNTLWTGPKPEANCIIEYGKQNPDSKLTLILVKNGGIVNGYVTLMGASDYVNTLFKNKNVSINVELYFDATGHILPDSSSLKTDLELKYKQTADFSARGFMPSTTAYPFVLPNAGTHNENYIFGQCYYKASDGALFPLEVTVMLNKRLPDSRTSYVMTFLWSLNAGLAPETTQATLITSPFTFSYIREDD
B7: Ad3-K/S/Kn (His tag, K-coil dimerization domain, flexible linker, one shaft motif, Ad3 fiber knob) (designed binder)
chain: KVSALKEKVSALKEKVSALKEKVSALKEKVSALKEGSGGGSGGGSGGGSNSIALKNNTLWTGPKPEANCIIEYGKQNPDSKLTLILVKNGGIVNGYVTLMGASDYVNTLFKNKNVSINVELYFDATGHILPDSSSLKTDLELKYKQTADFSARGFMPSTTAYPFVLPNAGTHNENYIFGQCYYKASDGALFPLEVTVMLNKRLPDSRTSYVMTFLWSLNAGLAPETTQATLITSPFTFSYIREDD
modifications: biotinylated (sites not given) only where it was immobilised on streptavidin (Fig. 5A)
B8: Ad3-E/S/Kn (His tag, E-coil dimerization domain, flexible linker, one shaft motif, Ad3 fiber knob) (designed binder)
chain: EVSALEKEVSALEKEVSALEKEVSALEKEVSALEKGSGGGSGGGSGGGSNSIALKNNTLWTGPKPEANCIIEYGKQNPDSKLTLILVKNGGIVNGYVTLMGASDYVNTLFKNKNVSINVELYFDATGHILPDSSSLKTDLELKYKQTADFSARGFMPSTTAYPFVLPNAGTHNENYIFGQCYYKASDGALFPLEVTVMLNKRLPDSRTSYVMTFLWSLNAGLAPETTQATLITSPFTFSYIREDD

Target: the molecule itself
Assay: SDS-PAGE of unboiled samples with Western blot

Protein | stoichiometry N
B1 | 3
B2 | 3
B3 | 3
B4 | 3
B5 | 3
B6 | 3

Target: the molecule itself
Assay: SDS-PAGE of unboiled samples, Coomassie stain

Protein | stoichiometry N
B7 | 3
B8 | 3
